Where “and” joins values, the source holds several entries; their conditions need not be identical. Identical values can stand only once.
B1: peptide GFRVVLMYRF (peptide)
peptide: GFRVVLMYRF
notes: canonical model Hsp70 peptide substrate; source: synthetic peptide
B2: Plasmodium falciparum Hsp70-1 (natural protein)
chain: not shown
notes: Plasmodium falciparum Hsp70-1, cytosolic Hsp70; PlasmoDB PF3D7_0818900; expressed from pQE30/PfHsp70-1; also called PfHsp70-1; PfHsp70
B3: peptide NRLLTG (peptide)
peptide: NRLLTG
notes: as for B1
B4: peptide ALLLMYRR (peptide)
peptide: ALLLMYRR
notes: as for B1
B5: peptide NRNNTG (peptide)
peptide: NRNNTG
notes: NRLLTG with the middle residues substituted by asparagine; source: synthetic peptide
B6: Plasmodium falciparum Hsp40 (natural protein, UniProt Q8IL88 1-424, looked up)
chain: MFFSSGFPFDSMGGQQARRKREVNNNKFYEVLNLKKNCTTDEVKKAYRKLAIIHHPDKGGDPEKFKEISRAYEVLSDEEKRKLYDEYGEEGLENGEQPADATDLFDFILNAGKGKKKRGEDIVSEVKVTLEQLYNGATKKLAISKDIICTNCEGHGGPKDAKVDCKQCNGRGTKTYMRYHSSVLHQTEVTCNTCRGKGKIFNEKDKCANCKGMCVLKTRKIIEVYIPKGAPNKHKIVFNGEADEKPNVITGNLVVILNEKQHPVFRREGIDLFMNYKISLYESLTGFVAEVTHLDERKILVNCTNSGFIRHGDIREVLDEGMPTYKDPFKKGNLYITFEVEYPMDLIITNENKEVLKILKKQNEVEKKYDLENSELEVVSCSPVDKEYIKVRVTKQQQQQQQEAYDDEDHQPEMEGGRVACAQQ
notes: P. falciparum type I Hsp40, cytosolic co-chaperone of PfHsp70-1; PlasmoDB PF3D7_1437900; codon harmonized gene cloned into pQE30 (BamHI, HindIII); also called PfHsp40

What was measured:
[1] = target: B2; experiment: SPR; conditions: both partners purified
Escherichia coli DnaK [2] = target: T1, Escherichia coli DnaK (Escherichia coli, UniProt P0A6Y8 1-638); experiment: SPR; MP-SPR; Hsp70 immobilised, peptide as analyte at 0-2000 nM, 100 µL/min; with 5 mM ATP (hydrolysable); conditions: both partners purified
T1 construct: E. coli Hsp70 (DnaK); expressed from pQE30/DnaK; also called E. coli Hsp70

[3] = target: the molecule itself; experiment: SPR; MP-SPR (BioNavis); Hsp70 immobilised on a CMD3D 500L chip, the same Hsp70 as analyte at 0-2000 nM; with 5 mM ATP; self-association, step not told; global fit
[4] = target: the molecule itself; experiment: SPR; MP-SPR (BioNavis); Hsp70 immobilised on a CMD3D 500L chip, the same Hsp70 as analyte at 0-2000 nM; no nucleotide; self-association, step not told; global fit
[5] = target: the molecule itself; experiment: SPR; MP-SPR (BioNavis); Hsp70 immobilised on a CMD3D 500L chip, the same Hsp70 as analyte at 0-2000 nM; with 5 mM ADP; self-association, step not told; global fit
Escherichia coli DnaK [6] = target: T1, Escherichia coli DnaK; experiment: SPR; MP-SPR; Hsp70 immobilised, peptide as analyte at 0-2000 nM, 100 µL/min; with 5 mM ADP; conditions: both partners purified
[7] = target: B2; experiment: SPR; MP-SPR (BioNavis); Hsp70 immobilised (1.0 μg/mL), PfHsp40 as analyte at 0-2000 nM; with 5 mM ADP; global fit; conditions: both partners purified
[8] = target: B2; experiment: SPR; MP-SPR (BioNavis); Hsp70 immobilised (1.0 μg/mL), PfHsp40 as analyte at 0-2000 nM; with 5 mM ATP; global fit; conditions: both partners purified
Escherichia coli DnaK [9] = target: T1, Escherichia coli DnaK; experiment: SPR; conditions: both partners purified
[10] = target: B2; experiment: SPR; MP-SPR (BioNavis); Hsp70 immobilised (1.0 μg/mL), PfHsp40 as analyte at 0-2000 nM; no nucleotide; global fit; conditions: both partners purified

B1
binding result [1]: binds | binding result (Escherichia coli DnaK [2]): binds

B2
Kd [3]: 528 nM | kon [3]: 21400 M⁻¹ s⁻¹ | Kd [4]: 2390 nM | kon [4]: 8510 M⁻¹ s⁻¹ | Kd [5]: 1710 nM | kon [5]: 100 M⁻¹ s⁻¹

B3
binding result (Escherichia coli DnaK [6]): binds | binding result [1]: binds

ANNNMYRR (source: synthetic peptide) [peptide ANNNMYRR]
binding result [1]: binds | binding result (Escherichia coli DnaK [2]): binds

B4
binding result (Escherichia coli DnaK [6]): binds | binding result [1]: binds

B5
binding result (Escherichia coli DnaK [6]): binds | binding result [1]: binds

GFRNNNMYRF (source: synthetic peptide) [peptide GFRNNNMYRF]
binding result [1]: binds | binding result (Escherichia coli DnaK [2]): binds

B6
Kd [7]: 9.98 µM | kon [7]: 1530 M⁻¹ s⁻¹ | Kd [8]: 208 nM | kon [8]: 181 M⁻¹ s⁻¹ | kon (Escherichia coli DnaK [9]): 122 M⁻¹ s⁻¹ and 116 M⁻¹ s⁻¹ and 112 M⁻¹ s⁻¹ | Kd [10]: 18.8 µM | kon [10]: 1330 M⁻¹ s⁻¹

— paper PMC7356358, “Comparative Characterization of Plasmodium falciparum Hsp70-1 Relative to E. coli DnaK Reveals the Functional Specificity of the Parasite Chaperone” (Biomolecules, 2020)
